Tested on: N[C@@H](CCC(=O)Nc1ccc([N+](=O)[O-])cc1)C(=O)O
Assay: purified protein
Details: apparent constant; hydrolysis

**Q.** “HpGT (Helicobacter pylori gamma-glutamyltranspeptidase) (Helicobacter pylori 26695)” was tested. Which Km did it give?
**A.** 22.1 ± 1.4 µM

**Q.** And the Vmax?
**A.** 5.18 µmol/min/mg

— article PMC2668148
